Target: transferrin receptors on human K562 erythroleukemic cells
Experiment: cell-based or functional assay

recombinant thiotransferrin (S28C, S415A, T613A) (ligand)
Specific iron uptake Bmax (fmol 55Fe/10^6 cells x 25min): 3020
Specific iron uptake Kd (nM transferrin): 209 nM
Total Iron Uptake Bmax (fmol 55Fe/10^6 cells x 25min): 4210

recombinant transferrin (S415A, T613A) (ligand)
Specific iron uptake Bmax (fmol 55Fe/10^6 cells x 25min): 2830
Specific iron uptake Kd (nM transferrin): 130 nM
Total Iron Uptake Bmax (fmol 55Fe/10^6 cells x 25min): 4050

Fluorescein conjugated thiotransferrin (S28C, S415A, T613A) (ligand)
Specific iron uptake Bmax (fmol 55Fe/10^6 cells x 25min): 2430
Specific iron uptake Kd (nM transferrin): 154 nM
Total Iron Uptake Bmax (fmol 55Fe/10^6 cells x 25min): 3290

recombinant thiotransferrin (S415C, T613A) (ligand)
Specific iron uptake Bmax (fmol 55Fe/10^6 cells x 25min): 2360
Specific iron uptake Kd (nM transferrin): 203 nM
Total Iron Uptake Bmax (fmol 55Fe/10^6 cells x 25min): 3690

Fluorescein conjugated thiotransferrin (S415C, T613A) (ligand)
Specific iron uptake Bmax (fmol 55Fe/10^6 cells x 25min): 3250
Specific iron uptake Kd (nM transferrin): 189 nM
Total Iron Uptake Bmax (fmol 55Fe/10^6 cells x 25min): 4160

Human plasma-derived apo-transferrin (Calbiochem 616419) (from UniProt P02787 20-698) (ligand)
Total Iron Uptake Bmax (fmol 55Fe/10^6 cells x 25min): 4250
